B1: IQ motif and ubiquitin-like domain-containing protein (Homo sapiens), Q8NA54 (parent)
chain: MSNQQEKYEAQNIVNSTEESDDAFDTVTIPVPSEEPQESDQTEEHESGIEQFSESHAIHVEEQSDQSFSSLEPDNEQLMEEVISPRQVSYTPQHHEKQYAMQRPNDDSLAFLDKIKSVKESLQESVEDSLATVKVVLIPVGQEIVIPFKVDTILKYLKDHFSHLLGIPHSVLQIRYSGKILKNNETLVQHGVKPQEIVQVEIFSTNPDLYPVRRIDGLTDVSQIITVTVQTGLDQYQQVPVEIVKSDFHKPFLGGFRHKVTGVEYHNAGTQTVPKRIPERLSIFCRDTQTVFQKKNLQQTTNTTSTQMTNIGVYVSNMTDKLVTPGKYFSAAEYHAQRLKAVIVIQTYYRQWHAKIFVENLRRQKSLRLEWETQQELRKIREKEEWIKLDYHRRHNPKTNEDFEFLYNALEFWRQEELTRINQSFTGAERKAALCELLEKETQIIASIGRHRYIAYMANQEAAIQAFLDKCSAPKIWRTPNGKTIEMDTQFTIRARELQNIYKCIMLKNISQDERLDVLLTLKHTVKEHECKLTQEILELIDREVDLMMRGVKHHNLEGLRKRIATLFFHYIKTPLFNPEVAKYLKVPQDPLKFYKKIYFCHSCQLYLPSTEFSVSSTSRRIYRCRNCINLQNEAQKRESFLKYKCLLQQLYYTEADYEDDSKIAFLMQLQDIQYLTENIWASQSVLSACDNLSDLVMVRWNKSLEWSPWNCILLTKDEAAAHLKLTSIEEGYERSFIHKIKHKHILAKNYFSQVPVLASFILDDGEIDEIRWKYHSDTTPKIIESQRPPH
partner: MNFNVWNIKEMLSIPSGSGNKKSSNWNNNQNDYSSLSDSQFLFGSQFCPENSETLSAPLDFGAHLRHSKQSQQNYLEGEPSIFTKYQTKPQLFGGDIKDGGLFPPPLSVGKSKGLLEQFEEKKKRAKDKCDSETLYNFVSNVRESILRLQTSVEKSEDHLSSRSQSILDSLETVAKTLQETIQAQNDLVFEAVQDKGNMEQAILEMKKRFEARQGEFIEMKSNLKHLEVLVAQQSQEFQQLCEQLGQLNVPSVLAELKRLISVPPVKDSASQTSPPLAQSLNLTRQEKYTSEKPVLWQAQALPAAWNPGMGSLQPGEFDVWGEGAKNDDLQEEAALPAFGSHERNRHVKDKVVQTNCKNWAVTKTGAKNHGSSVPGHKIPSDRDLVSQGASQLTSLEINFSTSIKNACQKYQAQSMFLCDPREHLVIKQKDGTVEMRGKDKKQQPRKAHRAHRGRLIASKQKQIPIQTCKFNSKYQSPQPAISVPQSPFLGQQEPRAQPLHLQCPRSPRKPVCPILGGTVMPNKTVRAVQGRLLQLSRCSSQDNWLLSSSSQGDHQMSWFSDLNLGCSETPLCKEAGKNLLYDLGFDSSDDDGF
B2: Protein LDOC1 (Homo sapiens), O95751 (parent)
chain: MVDELVLLLHALLMRHRALSIENSQLMEQLRLLVCERASLLRQVRPPSCPVPFPETFNGESSRLPEFIVQTASYMLVNENRFCNDAMKVAFLISLLTGEAEEWVVPYIEMDSPILGDYRAFLDEMKQCFGWDDDEDDDDEEEEDDY
partner: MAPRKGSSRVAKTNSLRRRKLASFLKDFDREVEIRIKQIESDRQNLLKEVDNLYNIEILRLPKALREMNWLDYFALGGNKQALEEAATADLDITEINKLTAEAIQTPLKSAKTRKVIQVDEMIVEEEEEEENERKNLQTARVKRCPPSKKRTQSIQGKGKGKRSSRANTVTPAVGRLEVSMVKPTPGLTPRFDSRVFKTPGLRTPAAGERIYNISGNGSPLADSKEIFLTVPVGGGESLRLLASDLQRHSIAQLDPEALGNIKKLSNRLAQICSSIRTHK
B3: Dynein light chain 2, cytoplasmic (Homo sapiens), Q96FJ2 (parent)
chain: MSDRKAVIKNADMSEDMQQDAVDCATQAMEKYNIEKDIAAYIKKEFDKKYNPTWHCIVGRNFGSYVTHETKHFIYFYLGQVAILLFKSG
partner: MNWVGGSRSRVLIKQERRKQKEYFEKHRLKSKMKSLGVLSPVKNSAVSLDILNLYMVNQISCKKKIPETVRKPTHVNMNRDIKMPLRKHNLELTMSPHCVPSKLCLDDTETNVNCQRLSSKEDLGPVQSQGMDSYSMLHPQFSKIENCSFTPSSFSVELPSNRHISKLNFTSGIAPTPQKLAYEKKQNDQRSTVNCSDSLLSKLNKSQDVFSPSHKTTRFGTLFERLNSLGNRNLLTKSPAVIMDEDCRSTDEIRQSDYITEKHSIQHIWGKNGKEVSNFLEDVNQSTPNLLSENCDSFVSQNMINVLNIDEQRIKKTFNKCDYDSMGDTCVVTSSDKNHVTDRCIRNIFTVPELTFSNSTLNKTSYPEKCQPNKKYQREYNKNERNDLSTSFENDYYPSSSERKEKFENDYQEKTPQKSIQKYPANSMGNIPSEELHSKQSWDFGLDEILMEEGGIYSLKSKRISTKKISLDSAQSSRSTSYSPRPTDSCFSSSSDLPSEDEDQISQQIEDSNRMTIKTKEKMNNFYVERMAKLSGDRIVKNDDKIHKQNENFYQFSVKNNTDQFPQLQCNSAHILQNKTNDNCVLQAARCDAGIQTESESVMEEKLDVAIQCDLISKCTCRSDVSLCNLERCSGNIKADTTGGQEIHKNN
B4: Syntenin-2 (Homo sapiens), Q9H190 (parent)
chain: MSSLYPSLEDLKVDQAIQAQVRASPKMPALPVQATAISPPPVLYPNLAELENYMGLSLSSQEVQESLLQIPEGDSTAVSGPGPGQMVAPVTGYSLGVRRAEIKPGVREIHLCKDERGKTGLRLRKVDQGLFVQLVQANTPASLVGLRFGDQLLQIDGRDCAGWSSHKAHQVVKKASGDKIVVVVRDRPFQRTVTMHKDSMGHVGFVIKKGKIVSLVKGSSAARNGLLTNHYVCEVDGQNVIGLKDKKIMEILATAGNVVTLTIIPSVIYEHMVKKLPPVLLHHTMDHSIPDA
partner: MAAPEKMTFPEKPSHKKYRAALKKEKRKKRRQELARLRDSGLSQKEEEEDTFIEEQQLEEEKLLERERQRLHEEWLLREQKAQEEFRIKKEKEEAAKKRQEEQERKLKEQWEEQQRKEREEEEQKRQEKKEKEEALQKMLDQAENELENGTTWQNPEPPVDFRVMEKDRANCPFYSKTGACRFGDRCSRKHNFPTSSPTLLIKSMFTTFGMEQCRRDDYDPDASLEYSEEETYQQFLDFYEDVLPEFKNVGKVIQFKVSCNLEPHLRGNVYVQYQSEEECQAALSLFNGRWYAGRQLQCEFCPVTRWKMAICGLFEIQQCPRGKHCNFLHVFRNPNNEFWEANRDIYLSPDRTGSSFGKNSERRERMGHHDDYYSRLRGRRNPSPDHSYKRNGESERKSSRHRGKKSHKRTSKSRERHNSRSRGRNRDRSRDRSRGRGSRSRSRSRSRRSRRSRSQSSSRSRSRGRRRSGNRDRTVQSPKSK
B5: Phenazine biosynthesis-like domain-containing protein (Homo sapiens), P30039 (parent)
chain: MKLPIFIADAFTARAFRGNPAAVCLLENELDEDMHQKIAREMNLSETAFIRKLHPTDNFAQSSCFGLRWFTPASEVPLCGHATLASAAVLFHKIKNMNSTLTFVTLSGELRARRAEDGIVLDLPLYPAHPQDFHEVEDLIKTAIGNTLVQDICYSPDTQKLLVRLSDVYNRSFLENLKVNTENLLQVENTGKVKGLILTLKGEPGGQTQAFDFYSRYFAPWVGVAEDPVTGSAHAVLSSYWSQHLGKKEMHAFQCSHRGGELGISLRPDGRVDIRGGAAVVLEGTLTA
partner: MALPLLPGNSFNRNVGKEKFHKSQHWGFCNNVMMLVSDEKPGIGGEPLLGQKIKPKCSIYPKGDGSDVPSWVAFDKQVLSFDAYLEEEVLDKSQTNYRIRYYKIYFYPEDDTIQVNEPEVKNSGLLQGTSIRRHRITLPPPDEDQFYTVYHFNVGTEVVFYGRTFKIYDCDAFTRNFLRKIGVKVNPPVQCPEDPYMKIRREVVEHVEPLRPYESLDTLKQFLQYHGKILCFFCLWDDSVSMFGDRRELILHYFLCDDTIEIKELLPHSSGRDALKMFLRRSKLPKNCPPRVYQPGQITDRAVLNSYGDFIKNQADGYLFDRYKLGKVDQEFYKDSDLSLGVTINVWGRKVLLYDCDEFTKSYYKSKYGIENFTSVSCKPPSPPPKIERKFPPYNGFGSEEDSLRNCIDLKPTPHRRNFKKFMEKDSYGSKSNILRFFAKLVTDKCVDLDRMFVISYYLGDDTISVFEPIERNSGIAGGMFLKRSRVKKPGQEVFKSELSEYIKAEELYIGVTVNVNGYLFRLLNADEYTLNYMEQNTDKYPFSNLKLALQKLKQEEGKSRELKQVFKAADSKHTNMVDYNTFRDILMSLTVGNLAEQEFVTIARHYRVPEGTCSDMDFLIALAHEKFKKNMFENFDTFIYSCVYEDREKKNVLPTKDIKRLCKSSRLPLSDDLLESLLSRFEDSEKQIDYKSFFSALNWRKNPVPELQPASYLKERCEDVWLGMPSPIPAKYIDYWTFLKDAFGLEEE
B6: Cyclin-D1-binding protein 1 (Homo sapiens), O95273 (parent)
chain: MASATAPAAAVPTLASPLEQLRHLAEELRLLLPRVRVGEAQETTEEFNREMFWRRLNEAAVTVSREATTLTIVFSQLPLPSPQETQKFCEQVHAAIKAFIAVYYLLPKDQGITLRKLVRGATLDIVDGMAQLMEVLSVTPTQSPENNDLISYNSVWVACQQMPQIPRDNKAAALLMLTKNVDFVKDAHEEMEQAVEECDPYSGLLNDTEENNSDNHNHEDDVLGFPSNQDLYWSEDDQELIIPCLALVRASKACLKKIRMLVAENGKKDQVAQLDDIVDISDEISPSVDDLALSIYPPMCHLTVRINSAKLVSVLKKALEITKASHVTPQPEDSWIPLLINAIDHCMNRIKELTQSELEL
partner: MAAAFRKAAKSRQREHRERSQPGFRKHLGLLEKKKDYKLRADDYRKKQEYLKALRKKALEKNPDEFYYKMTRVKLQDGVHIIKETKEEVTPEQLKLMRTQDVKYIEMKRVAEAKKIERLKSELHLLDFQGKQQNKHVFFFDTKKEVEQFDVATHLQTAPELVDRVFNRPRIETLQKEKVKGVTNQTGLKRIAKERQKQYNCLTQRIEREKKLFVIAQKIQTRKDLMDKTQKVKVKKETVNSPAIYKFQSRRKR

Variants of: B1
Settings: with iho1_human IHO1, Q8IYA8

Variant | effect of a mutation on the interaction
V126M | with no effect
I501F | disrupting interaction strength

Variants of: B2
Settings: with borea_human CDCA8, Q53HL2

Variant | effect of a mutation on the interaction
L12H | disrupting interaction strength

Variants of: B3
Settings: with rdic1_human REDIC1, Q86WS4

Variant | effect of a mutation on the interaction
E30D | with no effect

Variants of: B4
Settings: with ZRSR2, Q15696

Variant | effect of a mutation on the interaction
V182M | with no effect
G225R | disrupting interaction strength
G242R | disrupting interaction strength

Variants of: B5
Settings: with efhc2_human EFHC2, Q5JST6

Variant | effect of a mutation on the interaction
Y154C | disrupting interaction strength
A235T | disrupting interaction strength
H257R | disrupting interaction strength

Variants of: B6
Settings: with utp11_human UTP11, Q9Y3A2

Variant | effect of a mutation on the interaction
I277T | disrupting interaction strength

Source: IntAct's records for PubMed 31515488
